# Patent US20260242478A1 (published 2026)
# Where no end group is shown, it is not given here.
# B1: Phage-3004 (peptide)
# peptide: VEPMCRPAWMCLGF
# B2: Phage-3005 (peptide)
# peptide: ALPMCEPFWMCTGF
# B3: Phage-3006 (peptide)
# peptide: VMVECRPAWMCNGF
# B4: Phage-3007 (peptide)
# peptide: MYHMCRPSWMCEGF
# B5: Phage-3008 (peptide)
# peptide: SEVMCVPQWMCNGF
# B6: Phage-3009 (peptide)
# peptide: WWPSCVPEWMCAGL
# B7: Phage-3010 (peptide)
# peptide: GMPYCVPEWMCSWL
# B8: Phage-3011 (peptide)
# peptide: WEPVCKPDWMCNGF
# B9: Phage-3012 (peptide)
# peptide: QWLRCEPEWMCIGF
# B10: Phage-3013 (peptide)
# peptide: STMMCVPPWMCMGF
# B11: Phage-3014 (peptide)
# peptide: AELLCVPTWMCMGF
# B12: Phage-3015 (peptide)
# peptide: PAEWCIPVWMCTGF
# B13: Phage-3016 (peptide)
# peptide: ANVACIPPWMCLGF
# B14: Phage-3017 (peptide)
# peptide: VQGVCVPSWMCTGF
# B15: Phage-2990 (peptide)
# peptide: TTIMCEPTWMCTGF
# modifications: cysteine pairing not given here; also: peptide displayed as fusion to phage pIII
# B16: Phage-2991 (peptide)
# peptide: FHVRCVPEWMCWGF
# B17: Phage-2992 (peptide)
# peptide: YEIRCEPKWMCMGF
# B18: Phage-2993 (peptide)
# peptide: LAHMCIPAWMCAGL
# modifications: cysteine pairing not given here; also: peptide displayed as fusion to phage pIII
# B19: Phage-2994 (peptide)
# peptide: LQSMCRPAWMCTGF
# B20: Phage-2995 (peptide)
# peptide: AIAHCIPQWMCSGF
# B21: Phage-2996 (peptide)
# peptide: PEALCMPPWMCHGF
# B22: Phage-2997 (peptide)
# peptide: MSPRCVPMWMCDWL
# B23: Phage-2998 (peptide)
# peptide: VVAHCVPSWMCTGF
# B24: Phage-2999 (peptide)
# peptide: IARMCVPEWMCQEL
# B25: Phage-3000 (peptide)
# peptide: EIPVCRPAWMCLGL
# B26: Phage-3001 (peptide)
# peptide: MMPLCMPTWMCEGF
# B27: Phage-3002 (peptide)
# peptide: YQLLCKPEWMCVGF
# B28: Phage-3003 (peptide)
# peptide: MLPWCVPHWMCDGF
# B29: Phage-2976 (peptide)
# peptide: FEMLCKPAWMCSGF
# notes: It was tested as crude clonal phage supernatant; also called Peptide-180 library clone
# B30: Phage-2977 (peptide)
# peptide: TELRCVPSWMCTGF
# notes: as for B29
# B31: Phage-2978 (peptide)
# peptide: FGYACIPNWMCTVF
# notes: as for B29
# B32: Phage-2979 (peptide)
# peptide: SEIACRPAWMCQWL
# notes: as for B29
# B33: Phage-2980 (peptide)
# peptide: VEHWCRPEWMCAGF
# notes: as for B29
# B34: Phage-2981 (peptide)
# peptide: DDRMCIPSWMCSGL
# notes: as for B29
# B35: Phage-2982 (peptide)
# peptide: PMHACIPMWMCAGF
# notes: as for B29
# B36: Phage-2983 (peptide)
# peptide: PERMCRPLWMCEGF
# notes: as for B29
# B37: Phage-2984 (peptide)
# peptide: AGIRCVPEWMCLGF
# notes: as for B29
# B38: Phage-2985 (peptide)
# peptide: EEVYCVPKWMCLGF
# notes: as for B29
# B39: Phage-2986 (peptide)
# peptide: SQPMCIPVWMCRGF
# notes: as for B29
# B40: Phage-2987 (peptide)
# peptide: LLVRCQPEWMCVGF
# notes: as for B29
# B41: Phage-2988 (peptide)
# peptide: FTAYCKPAWMCQGL
# notes: as for B29
# B42: Phage-2989 (peptide)
# peptide: TVVMCKPSWMCEGF
# notes: as for B29
# B43: Phage-3018 (peptide)
# peptide: HEAMCRPTWMCHGF
# B44: Phage-3019 (peptide)
# peptide: IESRCVPEWMCYGF
# Target: T1, Anti-PSMA Fab (006 PSMA Fab) (biotinylated (site not stated))
# T1 construct: Biotinylated PSMA Fab captured on neutravidin coated plates
# Test: clonal phage ELISA, biotinylated PSMA Fab on neutravidin plates, anti-M13 HRP detection
# Protocol: (§1) Clonal phage were harvested as crude supernatants and screened via standard ELISAs. […] Prior to the addition of clonal phage. wells were incubated with blocking buffer and PSMA antigen or blocking buffer alone. Without washing or aspirating, clonal phage supernatants were then added to the wells and incubated for a short time. Wells were then washed followed by detection of bound phage using a horse radish conjugated anti-M13 antibody.
row,Binder,"Phage binding ELISA signal, Anti-PSMA Fab"
1,B1,2.21
2,B2,2.21
3,B3,2.21
4,B4,2.21
5,B5,2.21
6,B6,2.21
7,B7,2.21
8,B8,2.21
9,B9,2.21
10,B10,2.21
11,B11,2.2
12,B12,2.2
13,B13,2.2
14,B14,2.2

# Target: T2, PSMA Fab (biotinylated (site not stated))
# T2 construct: also called Anti-PSMA Fab; 006 PSMA Fab
# Test: phage ELISA; biotinylated PSMA Fab on neutravidin plate, clonal phage supernatant, anti-M13 HRP detection;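 also: wells preincubated with PSMA antigen in blocking buffer or with blocking buffer only before clonal phage were added for a short incubation, then bound phage detected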
row,Binder,"Phage binding ELISA signal, Anti-PSMA Fab"
1,B15,2.22
2,B16,2.22
3,B17,2.22
4,B18,2.22
5,B19,2.22
6,B20,2.22
7,B21,2.22
8,B22,2.22
9,B23,2.22
10,B24,2.22
11,B25,2.22
12,B26,2.22
13,B27,2.21
14,B28,2.21

# Target: T3, Anti-PSMA Fab (biotinylated (site not stated))
# T3 construct: The biotinylated PSMA Fab was captured on neutravidin coated plates for the phage ELISA; also called 006 PSMA Fab
# Test: phage ELISA; biotinylated anti-PSMA Fab on neutravidin plate, anti-M13-HRP detection, no PSMA antigen
row,Binder,"Phage binding ELISA signal, Anti-PSMA Fab"
1,B29,2.24
2,B30,2.24
3,B31,2.24
4,B32,2.24
5,B33,2.24
6,B34,2.24
7,B35,2.23
8,B36,2.23
9,B37,2.23
10,B38,2.23
11,B39,2.23
12,B40,2.23
13,B41,2.22
14,B42,2.22

# Target: T4, PSMA Fab (006 PSMA Fab)
# T4 construct: also called Anti-PSMA Fab; anti-PSMA Fab
# Test: clonal phage ELISA; biotinylated PSMA Fab on neutravidin plate, wells pre-incubated with PSMA antigen (competitor); anti-M13 HRP detection
# Protocol: as §1
row,Binder,"Phage binding ELISA signal, Anti-PSMA Fab in presence of PSMA antigen"
1,B43,0.0722
2,B44,0.0726

# Target: T1, Anti-PSMA Fab (006 PSMA Fab)
# Test: clonal phage ELISA on PSMA Fab pre-incubated with PSMA antigen as competitor, anti-M13 HRP detection
# Protocol: as §1
row,Binder,"Phage binding ELISA signal, Anti-PSMA Fab with PSMA antigen"
1,B1,0.0882
2,B2,0.0628
3,B3,0.0636
4,B4,0.142
5,B5,0.0981
6,B6,0.129
7,B7,0.0827
8,B8,0.08
9,B9,0.212
10,B10,0.0775
11,B11,0.0679
12,B12,0.0732
13,B13,0.109
14,B14,0.0875

# Target: T2, PSMA Fab
# Test: phage ELISA; PSMA Fab on plate pre-incubated with PSMA antigen as competitor, anti-M13 HRP detection;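 also: crude clonal phage supernatants added to Fab-coated wells still holding PSMA antigen in blocking buffer, with bound phage as read-out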
# Protocol: as §1
row,Binder,"phage binding ELISA signal (Anti-PSMA Fab, PSMA antigen present)"
1,B15,0.0683
2,B16,0.153
3,B17,0.0735
4,B18,0.104
5,B19,0.0839
6,B20,0.0878
7,B21,0.0657
8,B22,0.0821
9,B23,0.0901
10,B24,0.107
11,B25,0.0698
12,B26,0.075
13,B27,0.0672
14,B28,0.132

# Target: T3, Anti-PSMA Fab
# Test: phage ELISA; captured anti-PSMA Fab pre-incubated with PSMA antigen as competitor
# Protocol: as §1
row,Binder,"Phage binding ELISA signal, Anti-PSMA Fab with PSMA antigen"
1,B29,0.0857
2,B30,0.0676
3,B31,0.122
4,B32,0.125
5,B33,0.0893
6,B34,0.0851
7,B35,0.114
8,B36,0.11
9,B37,0.0784
10,B38,0.0871
11,B39,0.109
12,B40,0.14
13,B41,0.0917
14,B42,0.083

# Target: T4, PSMA Fab (006 PSMA Fab)
# Test: clonal phage ELISA; biotinylated PSMA Fab on neutravidin plate, blocking buffer alone; anti-M13 HRP detection;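 also: crude clonal phage supernatants added without washing to wells pretreated with blocking buffer with or without PSMA antigen, short incubation, then washed before detecting bound phage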
# Protocol: as §1
row,Binder,"Phage binding ELISA signal, Anti-PSMA Fab"
1,B43,2.2
2,B44,2.2
